Reference: publication PMC6089974
Residue numbers refer to the chain shown, from its start. Names and notes keep the numbering of the source.

Experiments:
Test in all cases: purified protein
[1] = substrate: O=[N+]([O-])c1ccc(O[C@H]2C=C(CO)[C@H](O)[C@H](O)[C@H]2F)c([N+](=O)[O-])c1; details: 50 mM HEPES pH 7.4, 37 °C, covalent intermediate slowly hydrolysed, apparent binding constant
[2] = substrate: O=[N+]([O-])c1ccc(O[C@H]2C=C(CO)[C@H](O)[C@H](O)[C@H]2O)c([N+](=O)[O-])c1; details: 50 mM HEPES pH 7.4, 37 °C, covalent intermediate slowly hydrolysed, 3b equilibrates in D2O with its C-2 aryloxy isomer (~2:1)
[3] = substrate: O=[N+]([O-])c1ccc(O[C@H]2O[C@H](CO)[C@H](O)[C@H](O)[C@H]2F)c([N+](=O)[O-])c1; details: 50 mM HEPES pH 7.4, 37 °C, printed Km does not agree with printed kcat and kcat/Km (possible misprint)
[4] = substrate: O=[N+]([O-])c1ccc(O[C@H]2O[C@H](CO)[C@H](O)[C@H](O)[C@H]2O)cc1; details: 50 mM HEPES pH 7.4, 37 °C, acid/base mutant

B1: TmGalA (Thermotoga maritima MSB8) (protein)
chain: MEIFGKTFREGRFVLKEKNFTVEFAVEKIHLGWKISGRVKGSPGRLEVLRTKAPEKVLVNNWQSWGPCRVVDAFSFKPPEIDPNWRYTASVVPDVLERNLQSDYFVAEEGKVYGFLSSKIAHPFFAVEDGELVAYLEYFDVEFDDFVPLEPLVVLEDPNTPLLLEKYAELVGMENNARVPKHTPTGWCSWYHYFLDLTWEETLKNLKLAKNFPFEVFQIDDAYEKDIGDWLVTRGDFPSVEEMAKVIAENGFIPGIWTAPFSVSETSDVFNEHPDWVVKENGEPKMAYRNWNKKIYALDLSKDEVLNWLFDLFSSLRKMGYRYFKIDFLFAGAVPGERKKNITPIQAFRKGIETIRKAVGEDSFILGCGSPLLPAVGCVDGMRIGPDTAPFWGEHIEDNGAPAARWALRNAITRYFMHDRFWLNDPDCLILREEKTDLTQKEKELYSYTCGVLDNMIIESDDLSLVRDHGKKVLKETLELLGGRPRVQNIMSEDLRYEIVSSGTLSGNVKIVVDLNSREYHLEKEGKSSLKKRVVKREDGRNFYFYEEGERE
**Q.** What does the source list for B1?
**A.** Km [1]: 4.1 ± 0.9 µM; kcat [1]: 0.000229 ± 1.1e-05 s⁻¹; kcat/Km [1]: 56 ± 13 M⁻¹ s⁻¹; Km [2]: 1.68 ± 0.14 µM; Km [3]: 253 ± 8 µM

B2: TmGalA (Thermotoga maritima MSB8; D387A) (protein)
chain: B1 chain with D387A
**Q.** For B2, which Km [4] is on record?
**A.** Its Km is 184 ± 7 µM.

**Q.** And the kcat [4]?
**A.** Its kcat is 0.036 s⁻¹.

**Q.** What about the kcat/Km [4] of the same protein?
**A.** Its kcat/Km is 196 M⁻¹ s⁻¹.
